2 sequences from patent US20230250415 can be followed below.

The subject of data set [1] is alpha2-TALEN-L (Platinum TALEN, TRAC exon 1). The experiment in a line: cell_activity. Particulars: half-site not delineated.
Data set [2] concerns alpha2-TALEN-R (Platinum TALEN, TRAC exon 1). The experiment in a line: cell_activity. The note with it: half-site not delineated.
The mark [3] stands for this setting: 1G4 knock-in efficiency in beta-null Jurkat with alpha2-TALEN pair and modified PITCh vector.
The mark [4] stands for this setting: 1G4 knock-in efficiency in beta-null Jurkat with alpha2-TALEN pair and conventional PITCh vector.

As for “GTCTGCCTATTCACCGATTGAAGATTTTGATTCAATGTGTCACAAAGTAAGGA (double strand)”, the activity in data set [1] (setting [3]) and in data set [2] (setting [3]) was 3.5% in each case.
Turning to “GTCTGCCTATTCACCGATTGAAGATTTTGATTCAATGTGTCACAAAGTAAGGATTC (double strand)”, the activity in data set [1] (setting [4]) and in data set [2] (setting [4]) was 3.1% in each case.
